Measured values published in paper PMC7946891, “Versatility in acyltransferase activity completes chicoric acid biosynthesis in purple coneflower” (Nature Communications, 2021).

Key:
[1] = substrate: CC(C)(COP(=O)(O)OP(=O)(O)OC[C@H]1O[C@@H](n2cnc3c(N)ncnc32)[C@H](O)[C@@H]1OP(=O)(O)O)[C@@H](O)C(=O)NCCC(=O)NCCSC(=O)/C=C/c1ccc(O)c(O)c1; experiment: UPLC-DAD endpoint assay, Michaelis-Menten; format: biochemical, Echinacea purpurea; conditions: PBS pH 7.0, 30 °C
[2] = substrate: CC(C)(COP(=O)(O)OP(=O)(O)OC[C@H]1O[C@@H](n2cnc3c(N)ncnc32)[C@H](O)[C@@H]1OP(=O)(O)O)[C@@H](O)C(=O)NCCC(=O)NCCSC(=O)/C=C/c1ccc(O)cc1; experiment: UPLC-DAD endpoint assay, Michaelis-Menten; format: biochemical, Echinacea purpurea; conditions: PBS pH 7.0, 30 °C
[3] = substrate: COc1cc(/C=C/C(=O)SCCNC(=O)CCNC(=O)[C@H](O)C(C)(C)COP(=O)(O)OP(=O)(O)OC[C@H]2O[C@@H](n3cnc4c(N)ncnc43)[C@H](O)[C@@H]2OP(=O)(O)O)ccc1O; experiment: UPLC-DAD endpoint assay, Michaelis-Menten; format: biochemical, Echinacea purpurea; conditions: PBS pH 7.0, 30 °C
[4] = substrate: O=C(O)[C@]1(O)C[C@@H](O)[C@@H](O)[C@H](O)C1; experiment: UPLC-DAD endpoint assay, Michaelis-Menten; format: biochemical, Echinacea purpurea; conditions: 50 μM caffeoyl CoA, PBS pH 7.0, 30 °C
purified protein [5] = substrate: O=C(O)C(O)C(O)C(=O)O; experiment: purified protein; conditions: 50 μM caffeoyl CoA, PBS pH 7.0, 30 °C, pH 7.0
[6] = substrate: O=C(O)C(O)C(O)C(=O)O; experiment: purified protein, by the assay type; parameters: Michaelis-Menten kinetics of recombinant EpHTT, product quantified by UPLC-DAD; conditions: pH 7.0; 16.0 °C
purified protein [7] = substrate: O=C(/C=C/c1ccc(O)c(O)c1)O[C@@H]1C[C@](O)(C(=O)O)C[C@@H](O)[C@H]1O; experiment: purified protein; conditions: 200 μM caftaric acid as acyl acceptor, 10 mM Na2HPO4, pH 4.0, 30 °C, pH 4.0
purified protein [8] = substrate: O=C(/C=C/c1ccc(O)c(O)c1)O[C@@H](C(=O)O)[C@@H](O)C(=O)O; experiment: purified protein; format: biochemical, Echinacea purpurea; conditions: 200 μM chlorogenic acid as acyl donor, 10 mM Na2HPO4, pH 4.0, 30 °C
purified protein [9] = substrate: O=C(/C=C/c1ccc(O)c(O)c1)O[C@@H]1O[C@H](CO)[C@@H](O)[C@H](O)[C@H]1O; experiment: purified protein; format: biochemical, Echinacea purpurea; conditions: 200 μM caftaric acid as acyl acceptor, 10 mM Na2HPO4, pH 4.0, 30 °C

B1: EpHQT (Echinacea purpurea) (protein)
chain: MNITITKSSLIPPSETLPGSETRLWTSNLDLVVGRIHILTVYFYRPNGSSNFFDPNAMKQALADVLVSFYPMAGRLGRDESGRVVINCNGEGALFVEAEADSCLDDFGEFTPSPELRSLTPAVDYSGDVSSYPLFFAQVTHFKCGGVSLGCGVFHTLSDGLSSLHFINTWSDVARGLSVAIPPFIDRTLLRAREPPTPTHDHVEYHPPPTMTMLNTIQKPGPLSKSSTTMLKLTLDQLNTLKAKTKTEGGPSYSTYEILAAHIWRCACKARGLPDDQLTKLYVATDGRSRLSPHLPRGYLGNVVFTATPVATSGALTSDSLQNAAKLIHTTLTQMDNEYLRSAIDYLEIQPDLSALIRGPSYFASPNLNINAWSRLPVHDADFGWGRPVFMGPAIILYEGTVYVLPSPNNDRSVSLAVCLDAKEQPLFEKYLYEF
notes: full-length CDS, N-terminal 6xHis (pDEST17), E. coli BL21(DE3), Ni-NTA purified
- Km ([1]; 1 mM quinic acid): 7.231 ± 1.577 µM
- kcat ([1]; 1 mM quinic acid): 0.111 ± 0.005 s⁻¹
- Km ([2]; 1 mM quinic acid): 70.547 ± 43.952 µM
- kcat ([2]; 1 mM quinic acid): 0.060 ± 0.036 s⁻¹
- Km ([3]; 1 mM quinic acid): 38.623 ± 14.588 µM
- kcat ([3]; 1 mM quinic acid): 0.0007 ± 0.00009 s⁻¹
- Km [4]: 576.167 ± 72.176 µM
- kcat [4]: 0.157 ± 0.007 s⁻¹

B2: EpHTT (Echinacea purpurea) (protein)
chain: MKVVVRESTVVRPAEESPPRKLWNSSLDLTNLNGHTLVVYFYRPNGASDFFNTKLMKDTLSRMLVAFYPFAGRFKYDQHGRVETDCQGQGALFLEAESDGLIDDFGDFLPTLEYLKLIPAIDYSKGIDSFPLMVFQVTFFKCGGVSLGVGMHHHLVDGMSGLHFTNTWADMTRGLDITLPPFIDRTLLRPRDPPRPVFEHIEYQSDPTPLKVSLDETKTSFSMFKLTRNQLALLKEKAKEEGNKISYTTFEMFSAHVWKCVCKARGLPDDVETKLYLPVDGRARLQPPLPPGYFGNVIFDAAVIATAGDIKSKPIWYAAGKIHDSLARMNNDYLRSAIDYLEQHNCKKPYVDYNTNLRINSWARLPIHDADFGWGRPIFMGRTGLPSVGRVYVLPSAMDDGSLSIILGLEAEEMKVFGNLLYAI
notes: as for B1
- Km (purified protein [5]): 841.967 ± 35.474 µM
- kcat (purified protein [5]): 0.685 ± 0.016 s⁻¹
- Km ([1]; 0.5 mM tartaric acid): 34.760 ± 6.832 µM
- kcat ([1]; 0.5 mM tartaric acid): 0.588 ± 0.064 s⁻¹
- Km ([2]; 0.5 mM tartaric acid): 22.027 ± 3.818 µM
- kcat ([2]; 0.5 mM tartaric acid): 0.007 ± 0.001 s⁻¹
- Km ([3]; 0.5 mM tartaric acid): 48.010 ± 11.329 µM
- kcat ([3]; 0.5 mM tartaric acid): 0.122 ± 0.011 s⁻¹
- Km [6]: 458.600 ± 80.431 µM
- kcat [6]: 0.176 ± 0.052 s⁻¹
- kcat/Km [6]: 390 ± 122 M⁻¹ s⁻¹

B3: EpCAS (Echinacea purpurea) (protein)
chain: ASTIVKNLPGFHGDLPCTIETGYIGVGADDEVQFFYYFVESERDPSRDPLIYYLTGGPGTTALYPFLFQIGPLSINYDNSTWEKLTLELNPYSWSKAANVLFVDLPAGTGFSYGTTYEATKSSDSISAQQGYEFLIKWLEENPRFLNNSLYIAGTSYMGIVVPVVTLEVYKGNERGDQPQLNVKGYAISSPLTDKFSDFNSRFEFAHRAALISDDIYKSAKNNCGGNYIYNAVENTECARSLQRFEECTSRINEANILDPLCDEDSQDPVCGEVGDKYLKYYGNDKEVQKALGVREGTIEEFVKTNQSIHYLINKEDQDCYSYDIFSTIIYHKSLVSRNCQALILSADHDFTFPYVGVEQWITSLNLPLESPWNPWFVNNQVAGYRLKYARNGYSLTYATVKGAGHSIALYKPRETWVILDEWLASNSYLSDS
notes: full-length cDNA, C-terminal 6xHis (pESC-His), S. cerevisiae BY4741, Ni-NTA purified; vacuolar targeting peptide Met1-His24
- Km (purified protein [7]): 83.910 ± 7.811 µM
- kcat (purified protein [7]): 0.005 ± 0.0003 s⁻¹
- Km (purified protein [8]): 53.910 ± 0.613 µM
- kcat (purified protein [8]): 0.005 ± 0.00002 s⁻¹
- Km (purified protein [9]): 121.400 ± 12.163 µM
- kcat (purified protein [9]): 1.09e-05 ± 8.7e-07 s⁻¹
